Assay results: patent US20060140946A1 (published 2006)

Target: human tumor necrosis factor-alpha (hTNFα) (human, UniProt P01375 77-233)
Assay: cell-based or functional assay

Sequence of human tumor necrosis factor-alpha (hTNFα) (P01375 77-233): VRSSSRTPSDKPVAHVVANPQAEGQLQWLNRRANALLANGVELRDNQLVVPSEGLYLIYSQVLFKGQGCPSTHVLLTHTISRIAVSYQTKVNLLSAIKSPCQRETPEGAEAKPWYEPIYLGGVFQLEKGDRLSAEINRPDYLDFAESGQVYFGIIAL

Binder	IC50: concentration of fusion protein required to inhibit 2 ng/ml (39.2 pM) TNFα by 50%, WEHI 164 cytotoxicity assay [pM]
p55-sf2 TNF receptor/IgG1 fusion protein (Fc fusion) QVCPQGKYIHPQNNSICCTKCHKGTYLYNDCPGPGQDTDCRECESGSFTASENHLRHCLSCSKCRKEMGQVEISSCTVDRDTVCGCRKNQYRHYWSENLFQCFNCSLCLNGTVHLSCQEKQNTVCTCHAGFFLRENECVSCSNCKKSLECTKLCLPQIPGTLVTVSS	70
p75P-sf2 TNF receptor/IgG1 fusion protein (Fc fusion) QLPAQVAFTPYAPEPGSTCRLREYYDQTAQMCCSKCSPGQHAKVFCTKTSDTVCDSCEDSTYTQLWNWVPECLSCGSRCSSDQVETQACTREQNRICTCRPGWYCALSKQEGCRLCAPLRKCRPGFGVARPGTETSDVVCKPCAPGTFSNTTSSTDICRPHQICNVVAIPGNASMDAVCTSTSGTLVTVSS	70
